Test results as given in US20110091971A1, “Differentiation of Pluripotent Stem Cells” (priority 2008, published 2011).

Tested on: H1 or H9 human embryonic stem cells
Assay: Activin A bioassay: differentiation of human embryonic stem cells to definitive endoderm, cell number and SOX17 intensity by high content analysis (96-well, four days);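 for Cell Number average: Raw total cell count per well from high content imaging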;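 for Sox 17 Intensity average: total fluorescence of the cell multiplied by cell area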
Format: cell-based
Conditions: for Sox 17 Intensity % of control: control = R&D Sys Activin A 100 ng/ml on same plate
Procedure, shortened: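 Read-out was cell count and integrated SOX17 immunofluorescence by high-content imaging, with each well divided by the mean of the 100 ng/ml activin A control. Over the four-day culture, test samples were given in DMEM:F12 with 0.5% FCS plus 20 ng/ml Wnt3a for the first two days and in 2% FCS alone for the last two. Cells were H1 or H9 hESC clusters grown on Matrigel.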

[1] = supernatant concentration 1x, assay dilution 1:20
[2] = supernatant concentration 10x, assay dilution 1:20
[3] = supernatant concentration 10x, assay dilution 1:40
[4] = supernatant concentration 10x, assay dilution 1:20, assay plates #007, #009, #010
[5] = supernatant concentration 50x, assay dilution 1:20, assay plates #008, #009
[6] = supernatant concentration 50x, assay dilution 1:20

| Molecule | Sox 17 Intensity % of control [2] [%] | Cell Number average [4] | Sox 17 Intensity average [4] | Cell Number average [5] | Sox 17 Intensity average [5] | Sox 17 Intensity % of control [6] [%] | other results |
| --- | --- | --- | --- | --- | --- | --- | --- |
| ACTN5: activin A variant peptide, SEQ ID 6 (protein) GLECDGKVNYCCKKQNFVSFKDIGWNDWIIAPSGYHANECSGKCPSHIAGTSGSSLSFHSTVINHYRMRGHSPFSNLGACCIPTKLRPMSMLYYDDGQNIIKKDIQNMIVEECGCS | 5.6 | – | – | – | – | – | Cell Number average [1]: 1261; Sox 17 Intensity average [1]: 1.111E+07; Sox 17 Intensity % of control [1]: 6.0%; Cell Number average [2]: 1396; Sox 17 Intensity average [2]: 1.031E+07; Cell Number average [3]: 1382; Sox 17 Intensity average [3]: 1.311E+07; Sox 17 Intensity % of control [3]: 7.1% |
| ACTN36: activin A variant peptide, SEQ ID 37 (protein) GLECDGKVNLCCKKQDFVSFKDIGWNDWIIAPSGYHANRCSGKCPSHIAGTSGSSLSFHSTVINHYRMRGHSPFANMGACCVPTKLRPMSMLYYDDGQNIIKKDIQNMIVEECGCS | 18.4 | 24664 | 2.60E+07 | – | – | – | – |
| ACTN13: activin A variant peptide, SEQ ID 14 (protein) GLECDGKVNLCCKKQDFVSFKDIGWNDWIIAPSGYHANKCSGKCPSHIAGTSGSSLSFHSTVINHYRMRGHSPFSDMGSCCIPTKLRPMSMLYYDDGQNIIKKDIQNMIVEECGCS | 19.7 | 19861 | 2.78E+07 | – | – | – | – |
| ACTN40: activin A variant peptide, SEQ ID 41 (protein) GLECDGKVNLCCKKQLFVSFKDIGWNDWIIAPSGYHANHCAGLCPSHIAGTSGSSLSFHSTVINHYRMRGHSPFSNMGSCCVPTKLRPMSMLYYDDGQNIIKKDIQNMIVEECGCS | 85.6 | 11321 | 1.21E+08 | – | – | – | – |
| ACTN15: activin A variant peptide, SEQ ID 16 (protein) GLECDGKVNLCCKKQDFVSFKDIGWNDWIIAPSGYHANRCSGLCPSHIAGTSGSSLSFHSTVINHYRMRGHSPFSNMGSCCIPTKLRPMSMLYYDDGQNIIKKDIQNMIVEECGCS | 20.5 | 22700 | 2.89E+07 | – | – | – | – |
| ACTN72: activin A variant peptide, SEQ ID 73 (protein) GLECDGKVNICCKKQLFGQAKDIGWNDWIIAPSGYHGGSCTGECPSHIAGTSGSSLSFHSTVINHYRMRGHSPNANLKSCCSPTKLRPMSMLYYDDGQNIIKKDIQNMVVEECGCT | 13.8 | 14638 | 3.44E+06 | 16810 | 6.51E+06 | 26.1 | – |
| ACTN74: activin A variant peptide, SEQ ID 75 (protein) GLECDGKVNICCKKQSFGRAKDIGWNDWIIAPSGYHGGGCTGECPSHIAGTSGSSLSFHSTVINHYRMRGHSPFANLKSCCSPTKLRPMSMLYYDDGQNIIKKDIQGMVVEECGCT | 13.2 | 15049 | 3.30E+06 | 16143 | 1.03E+07 | 41.3 | – |
| ACTN78: activin A variant peptide, SEQ ID 79 (protein) GLECDGKVNICCKKQLFGQAKDIGWNDWIIAPSGYHGGGCSGECPSHIAGTSGSSLSFHSTVINHYRMRGHSPVANLKSCCSPTKLRPMSMLYYDDGQNIIKKDIQNMVVEECGCT | 4.4 | 12585 | 1.11E+06 | 16301 | 5.64E+06 | 22.6 | – |
